The source of these data is US20230212549A1, “COMPOUNDS COMPRISING A […] LIGAND AND USE THEREOF” (priority 2021, published 2023).

Holding throughout (experiment): cell-based or functional assay
For test [1], the target named is T1, Acetylcholinesterase (h) (human), P22303.
T1 chain: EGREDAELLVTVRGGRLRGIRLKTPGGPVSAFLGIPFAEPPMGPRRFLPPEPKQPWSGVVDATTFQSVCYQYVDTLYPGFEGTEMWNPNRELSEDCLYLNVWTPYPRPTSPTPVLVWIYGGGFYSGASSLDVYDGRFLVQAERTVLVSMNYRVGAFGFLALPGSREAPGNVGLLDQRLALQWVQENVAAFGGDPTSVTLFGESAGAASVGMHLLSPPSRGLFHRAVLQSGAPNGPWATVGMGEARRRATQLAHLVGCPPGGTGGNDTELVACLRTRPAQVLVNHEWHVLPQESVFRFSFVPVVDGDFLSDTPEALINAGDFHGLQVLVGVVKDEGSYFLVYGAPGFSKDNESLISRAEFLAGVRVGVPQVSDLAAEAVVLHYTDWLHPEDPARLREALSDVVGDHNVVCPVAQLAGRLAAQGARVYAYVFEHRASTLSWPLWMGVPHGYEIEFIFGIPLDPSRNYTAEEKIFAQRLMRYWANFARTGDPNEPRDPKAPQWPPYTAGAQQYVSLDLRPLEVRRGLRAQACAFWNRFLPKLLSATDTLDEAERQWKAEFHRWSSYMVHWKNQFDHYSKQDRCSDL

For test [2], the target named is Activated Protein C, P04070.
Test [3] deals with T2, Deubiquitinase OTUD6B, Q8N6M0.
T2 chain: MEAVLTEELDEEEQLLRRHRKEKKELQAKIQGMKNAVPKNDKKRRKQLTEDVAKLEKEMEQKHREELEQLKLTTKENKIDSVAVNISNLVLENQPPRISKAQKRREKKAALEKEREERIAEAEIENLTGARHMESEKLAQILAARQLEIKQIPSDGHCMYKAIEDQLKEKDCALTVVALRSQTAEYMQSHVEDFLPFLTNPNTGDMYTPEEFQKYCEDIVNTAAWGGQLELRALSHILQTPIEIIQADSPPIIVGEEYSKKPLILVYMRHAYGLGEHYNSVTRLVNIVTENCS

Test [4] addresses T3, Renin, P00797.
T3 chain: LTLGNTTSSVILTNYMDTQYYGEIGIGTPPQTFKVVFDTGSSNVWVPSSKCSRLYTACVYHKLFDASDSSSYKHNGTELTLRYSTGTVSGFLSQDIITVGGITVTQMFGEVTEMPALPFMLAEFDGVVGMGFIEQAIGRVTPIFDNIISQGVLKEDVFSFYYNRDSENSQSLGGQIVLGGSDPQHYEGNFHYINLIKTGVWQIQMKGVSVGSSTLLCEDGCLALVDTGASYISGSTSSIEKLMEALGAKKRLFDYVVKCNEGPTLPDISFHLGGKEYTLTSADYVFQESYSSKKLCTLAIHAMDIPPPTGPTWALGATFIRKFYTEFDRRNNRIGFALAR

Test [5] has as its target Ubiquitin carboxy-terminal hydrolase L1, P09936.
Test [6] concerns the target T4, Ubiquitin carboxyl-terminal hydrolase 8, P40818.
T4 chain: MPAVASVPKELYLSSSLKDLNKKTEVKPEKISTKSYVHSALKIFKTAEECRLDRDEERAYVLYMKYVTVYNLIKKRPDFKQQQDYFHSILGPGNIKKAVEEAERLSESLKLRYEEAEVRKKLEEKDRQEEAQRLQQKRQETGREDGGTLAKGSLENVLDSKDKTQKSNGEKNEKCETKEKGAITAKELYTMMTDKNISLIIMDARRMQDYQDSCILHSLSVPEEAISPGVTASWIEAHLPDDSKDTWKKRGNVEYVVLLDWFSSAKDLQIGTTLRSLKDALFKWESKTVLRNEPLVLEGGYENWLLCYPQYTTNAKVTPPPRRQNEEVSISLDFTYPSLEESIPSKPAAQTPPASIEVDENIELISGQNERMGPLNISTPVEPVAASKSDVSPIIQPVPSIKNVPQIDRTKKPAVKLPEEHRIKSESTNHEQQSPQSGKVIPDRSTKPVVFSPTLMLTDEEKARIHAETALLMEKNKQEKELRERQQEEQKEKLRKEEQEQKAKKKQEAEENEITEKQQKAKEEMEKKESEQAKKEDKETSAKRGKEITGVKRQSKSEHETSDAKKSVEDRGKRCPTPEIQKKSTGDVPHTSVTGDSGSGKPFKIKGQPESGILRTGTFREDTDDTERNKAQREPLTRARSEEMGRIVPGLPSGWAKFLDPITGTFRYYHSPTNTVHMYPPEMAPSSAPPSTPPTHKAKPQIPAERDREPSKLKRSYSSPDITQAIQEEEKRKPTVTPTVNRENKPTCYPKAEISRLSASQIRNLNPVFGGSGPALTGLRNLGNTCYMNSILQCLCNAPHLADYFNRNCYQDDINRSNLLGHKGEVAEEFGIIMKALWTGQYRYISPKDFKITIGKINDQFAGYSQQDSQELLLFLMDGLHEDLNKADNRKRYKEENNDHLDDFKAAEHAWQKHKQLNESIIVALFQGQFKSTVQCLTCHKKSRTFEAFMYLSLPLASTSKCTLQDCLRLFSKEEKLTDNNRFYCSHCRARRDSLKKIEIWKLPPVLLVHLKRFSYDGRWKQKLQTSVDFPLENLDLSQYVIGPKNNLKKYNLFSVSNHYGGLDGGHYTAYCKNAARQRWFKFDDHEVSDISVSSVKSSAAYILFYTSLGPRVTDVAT

Bridge positions count the residues as written; N and C are the ends.

Sequence of Ubiquitin carboxy-terminal hydrolase L1, P09936 (P09936 whole entry): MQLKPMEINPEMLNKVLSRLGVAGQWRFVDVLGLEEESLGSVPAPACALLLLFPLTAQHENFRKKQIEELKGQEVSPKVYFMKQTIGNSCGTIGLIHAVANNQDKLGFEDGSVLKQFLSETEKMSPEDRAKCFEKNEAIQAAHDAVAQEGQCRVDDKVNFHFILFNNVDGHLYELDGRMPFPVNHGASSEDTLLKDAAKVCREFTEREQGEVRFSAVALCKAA

B1: Hex-[Cys(tMeBn(DOTA-PP))-Pro-Pro-Thr-Gln-Phe-Cys]-Asp-NH2 (peptide)
peptide: Hex-CPPTQFCD-NH2
modifications: bridge 1-7; not fully specified (bridges); printed as Hex-[Cys(tMeBn(DOTA-PP))-Pro-Pro-Thr-Gln-Phe-Cys]-Asp-NH2
With B1, the % inhibition of control enzyme activity, compound at 10 µM in test [1] was -6%. Also, the Percentage inhibition (%) at 1 µM in test [2] was 5%; in test [3], 2%; in test [4], -1%; in test [5], -2%; in test [6], -3%. The Percentage inhibition (%) at 10 µM in test [2] came out at 8%; in test [3] it was 15%; in test [4], 3%; in test [5], 4%; in test [6] it was 6%.

B2: Hex-[Cys(tMeBn(DOTA-AET))-Pro-Pro-Thr-Gln-Phe-Cys]-OH (peptide)
peptide: Hex-CPPTQFC-OH
modifications: bridge 1-7; not fully specified (bridges); printed as Hex-[Cys(tMeBn(DOTA-AET))-Pro-Pro-Thr-Gln-Phe-Cys]-OH
In the case of B2, the % inhibition of control enzyme activity, compound at 10 µM in test [1] stood at 1%. Also, the Percentage inhibition (%) at 1 µM was -11% in test [2]; 0% in test [3]; 0% in test [4]; -4% in test [5]; 2% in test [6]. The Percentage inhibition (%) at 10 µM in test [2] is 1%; in test [3], 0%; in test [4], -1%; in test [5], 4%; in test [6] it was 1%.
